This note sets out measurements from paper PMC3830444.

One assay concerns the target activated protein C (UniProt P04070).
The target of another assay is γT-thrombin (UniProt P00734).
The target in assay [1] is human α-thrombin (human) (UniProt P00734).
For assay [2], the target named is FPR-chloromethyl ketone-thrombin (active site-inhibited α-thrombin) (human) (UniProt P00734). The assay is described as follows: ELISA; HCII 1-75 immobilised on microtiter plates; α-thrombin or FPR-ck-thrombin incubated with or without competitor peptides or proteins; bound thrombin detected after washes with a horseradish peroxidase-conjugated sheep anti-human antibody (A490); one-site binding fit, IC50 = competitor concentration that reduces binding by 50%. Background: An ELISA detects its analyte on a solid surface through an enzyme-linked reagent.

The target of assay [3] is human α-thrombin (human) (UniProt P00734). The description is as above.
Assay [4] shares this target. This is another data set of the same source.
For assay [5] the target is unchanged. In words: ELISA.

Sequence of activated protein C (P04070 whole entry, looked up): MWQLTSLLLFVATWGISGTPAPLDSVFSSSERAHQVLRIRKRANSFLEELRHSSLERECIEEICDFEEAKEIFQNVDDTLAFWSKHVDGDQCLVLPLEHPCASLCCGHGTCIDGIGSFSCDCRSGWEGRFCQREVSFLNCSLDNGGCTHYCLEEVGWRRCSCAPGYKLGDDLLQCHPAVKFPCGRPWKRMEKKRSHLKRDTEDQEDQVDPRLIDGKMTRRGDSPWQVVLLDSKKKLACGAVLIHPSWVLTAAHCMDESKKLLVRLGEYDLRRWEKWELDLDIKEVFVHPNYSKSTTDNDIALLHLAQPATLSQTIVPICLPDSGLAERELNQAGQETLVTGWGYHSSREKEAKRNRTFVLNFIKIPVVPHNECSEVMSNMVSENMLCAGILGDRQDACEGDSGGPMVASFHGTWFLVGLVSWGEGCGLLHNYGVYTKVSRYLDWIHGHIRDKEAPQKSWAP

In the assay with activated protein C, “API M358R (alpha-1 proteinase inhibitor with the substitution of Met358 by Arg) (from UniProt P01009 25-418) (natural protein)” had a second order rate constant of inhibition (k2) of APC of 28300 M⁻¹ s⁻¹. The second order rate constant of inhibition (k2) of γT-thrombin with γT-thrombin was 98300 M⁻¹ s⁻¹. This substance gave a second order rate constant of inhibition (k2) of α-thrombin with human α-thrombin (human) [1] of 367000 M⁻¹ s⁻¹.

In the assay with activated protein C, “HAPI M358R (residues 1-75 of heparin cofactor II fused to API M358R) (from UniProt P01009 25-418)” showed a second order rate constant of inhibition (k2) of APC of 28300 M⁻¹ s⁻¹. This substance had a second order rate constant of inhibition (k2) of γT-thrombin with γT-thrombin of 567000 M⁻¹ s⁻¹. Moreover, the second order rate constant of inhibition (k2) of α-thrombin with human α-thrombin (human) [1] is 3.1e+06 M⁻¹ s⁻¹.

In the case of “HAPI RCL5 (HAPI M358R with additional F352A/L353V/E354V/A355I/I356A/I460L substitutions) (from UniProt P01009 25-418)”, in assay [2], the IC50 was found to be 17 µM.

For “HCII 1-75 (recombinant protein of 84 amino acids: residues 1-75 of heparin cofactor II with an N-terminal nonapeptide tag) (domain or fragment)”, the half-maximal inhibitory concentration (IC50) in the assay with human α-thrombin (human) [3] stood at 8 µM; in assay [2], 9 µM. In the assay with human α-thrombin (human) [4], this substance had a concentration required to double the Thrombin Clotting Time (TCT) of diluted citrated human plasma of 12 µM.

The substance “HV3API M358R (HV3 residues 54-66 fused through G6 to the N-terminus of API M358R) (from UniProt P01009 25-418)” showed a second order rate constant of inhibition (k2) of APC with activated protein C of 31700 M⁻¹ s⁻¹.

Regarding HV3_(54-66) synthetic peptide, the concentration required to double the Thrombin Clotting Time (TCT) of diluted citrated human plasma with human α-thrombin (human) [4] was found to be 0.45 µM. In the assay with human α-thrombin (human) [5], this substance displayed an IC50 of 0.9 µM.

Broadly, the IC50 is the concentration that gives 50% inhibition.
